System: CC(=O)OCOC(=O)CN(CC(=O)OCOC(C)=O)Cc1c(OC(C)=O)ccc2c1Oc1c(ccc(OC(C)=O)c1CN(CC(=O)OCOC(C)=O)CC(=O)OCOC(C)=O)C21OC(=O)c2ccccc21
Experiment: TP_TRANSPORTER: efflux in K562/ADR cells
Format: functional, cell-based

With “ATP-dependent translocase ABCB1 (Homo sapiens)” the Km was 0.12 µM.

From ChEMBL document CHEMBL2074368, “Kinetic analysis of calcein and calcein-acetoxymethylester efflux mediated by the multidrug resistance protein and P-glycoprotein” (Biochemistry, 1998)
